Values belong to the binder of their own block, whether it stands above or below them.
Experiments:
Assay in all cases: cell-based or functional assay
ADAMTS5 = target: T1, ADAMTS5 (human, UniProt Q9UNA0 262-622, limits assumed)
T1 sequence (looked up): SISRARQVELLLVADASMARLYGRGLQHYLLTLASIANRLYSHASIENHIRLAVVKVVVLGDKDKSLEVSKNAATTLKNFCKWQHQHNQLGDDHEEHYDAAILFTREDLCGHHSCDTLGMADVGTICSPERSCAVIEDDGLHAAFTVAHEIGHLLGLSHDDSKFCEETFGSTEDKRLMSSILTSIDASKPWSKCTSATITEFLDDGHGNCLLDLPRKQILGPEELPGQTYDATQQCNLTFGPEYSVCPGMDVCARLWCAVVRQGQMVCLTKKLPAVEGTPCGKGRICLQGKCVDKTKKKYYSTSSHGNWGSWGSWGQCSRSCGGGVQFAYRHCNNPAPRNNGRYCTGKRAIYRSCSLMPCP

ADAMTS4 = target: T2, ADAMTS4 (human, UniProt O75173 213-685, limits assumed)
T2 sequence (looked up): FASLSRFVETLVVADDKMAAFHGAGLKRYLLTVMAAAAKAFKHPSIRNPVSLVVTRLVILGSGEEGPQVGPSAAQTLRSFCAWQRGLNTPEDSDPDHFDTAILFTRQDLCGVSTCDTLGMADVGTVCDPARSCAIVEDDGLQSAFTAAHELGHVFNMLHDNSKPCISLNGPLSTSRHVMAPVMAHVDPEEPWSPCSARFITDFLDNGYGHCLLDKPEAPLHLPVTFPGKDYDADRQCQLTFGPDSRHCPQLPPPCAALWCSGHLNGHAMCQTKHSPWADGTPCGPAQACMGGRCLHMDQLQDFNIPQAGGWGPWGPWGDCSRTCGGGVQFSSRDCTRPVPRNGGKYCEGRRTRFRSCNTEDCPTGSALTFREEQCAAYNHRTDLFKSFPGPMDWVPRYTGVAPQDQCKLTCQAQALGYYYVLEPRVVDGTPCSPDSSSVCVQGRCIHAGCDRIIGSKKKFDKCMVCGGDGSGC

MMP13 = MMP13 (human, UniProt P45452 104-471, limits assumed)

- Protease Inhibition (% of WT) (ADAMTS5): 199 % of WT
- Protease Inhibition (% of WT) (ADAMTS4): 108 % of WT
- Protease Inhibition (% of WT) (MMP13): 56 % of WT
B1: Variant A2M, bait region SEQ ID NO 112 (other)
chain: SVSGKPQYMVLVPSLLHTETTEKGCVLLSYLNETVTVSASLESVRGNRSLFTDLEAENDVLHCVAFAVPKSSSNEEVMFLTVQVKGPTQEFKKRTTVMVKNEDSLVFVQTDKSIYKPGQTVKFRVVSMDENFHPLNELIPLVYIQDPKGNRIAQWQSFQLEGGLKQFSFPLSSEPFQGSYKVVVQKKSGGRTEHPFTVEEFVLPKFEVQVTVPKIITILEEEMNVSVCGLYTYGKPVPGHVTVSICRKYSDASDCHGEDSQAFCEKFSGQLNSHGCFYQQVKTKVFQLKRKEYEMKLHTEAQIQEEGTVVELTGRQSSEITRTITKLSFVKVDSHFRQGIPFFGQVRLVDGKGVPIPNKVIFIRGNEANYYSNATTDEHGLVQFSINTTNVMGTSLTVRVNYKDRSPCYGYQWVSEEHEEAHHTAYLVFSPSKSFVHLEPMSHELPCGHTQTVQAHYILNGGTLLGLKKLSFYYLIMAKGGIVRTGTHGLLVKQEDMKGHFSISIPVKSDIAPVARLLIYAVLPTGDVIGDSAKYDVENCLANKVDLSFSPSQSLPASHAHLRVTAAPQSVCALRAVDQSVLLMKPDAELSASSVYNLLPEKDLTGFPGPLNDQDDEDCINRHNVYINGITYTPVSSTNEKDMYSFLEDMGLKAFTNSKIRKPKMCPQLEPGLAPGGEEGVEEGGPEEGVEEGGFKEGVEGEPESSGKLRKYFPETWIWDLVVVNSAGVAEVGVTVPDTITEWKAGAFCLSEDAGLGISSTASLRAFQPFFVELTMPYSVIRGEAFTLKATVLNYLPKCIRVSVQLEASPAFLAVPVEKEQAPHCICANGRQTVSWAVTPKSLGNVNFTVSAEALESQELCGTEVPSVPEHGRKDTVIKPLLVEPEGLEKETTFNSLLCPSGGEVSEELSLKLPPNVVEESARASVSVLGDILGSAMQNTQNLLQMPYGCGEQNMVLFAPNIYVLDYLNETQQLTPEIKSKAIGYLNTGYQRQLNYKHYDGSYSTFGERYGRNQGNTWLTAFVLKTFAQARAYIFIDEAHITQALIWLSQRQKDNGCFRSSGSLLNNAIKGGVEDEVTLSAYITIALLEIPLTVTHPVVRNALFCLESAWKTAQEGDHGSHVYTKALLAYAFALAGNQDKRKEVLKSLNEEAVKKDNSVHWERPQKPKAPVGHFYEPQAPSAEVEMTSYVLLAYLTAQPAPTSEDLTSATNIVKWITKQQNAQGGFSSTQDTVVALHALSKYGAATFTRTGKAAQVTIQSSGTFSSKFQVDNNNRLLLQQVSLPELPGEYSMKVTGEGCVYLQTSLKYNILPEKEEFPFALGVQTLPQTCDEPKAHTSFQISLSVSYTGSRSASNMAIVDVKMVSGFIPLKPTVKMLERSNHVSRTEVSSNHVLIYLDKVSNQTLSLFFTVLQDVPVRDLKPAIVKVYDYYETDEFAIAEYNAPCSKDLGNADYKDDDDKGASHHHHHH

- Protease Inhibition (% of WT) (ADAMTS5): 89 % of WT
- Protease Inhibition (% of WT) (ADAMTS4): 105 % of WT
- Protease Inhibition (% of WT) (MMP13): 113 % of WT
B2: Variant A2M, bait region SEQ ID NO 111 (other)
chain: SVSGKPQYMVLVPSLLHTETTEKGCVLLSYLNETVTVSASLESVRGNRSLFTDLEAENDVLHCVAFAVPKSSSNEEVMFLTVQVKGPTQEFKKRTTVMVKNEDSLVFVQTDKSIYKPGQTVKFRVVSMDENFHPLNELIPLVYIQDPKGNRIAQWQSFQLEGGLKQFSFPLSSEPFQGSYKVVVQKKSGGRTEHPFTVEEFVLPKFEVQVTVPKIITILEEEMNVSVCGLYTYGKPVPGHVTVSICRKYSDASDCHGEDSQAFCEKFSGQLNSHGCFYQQVKTKVFQLKRKEYEMKLHTEAQIQEEGTVVELTGRQSSEITRTITKLSFVKVDSHFRQGIPFFGQVRLVDGKGVPIPNKVIFIRGNEANYYSNATTDEHGLVQFSINTTNVMGTSLTVRVNYKDRSPCYGYQWVSEEHEEAHHTAYLVFSPSKSFVHLEPMSHELPCGHTQTVQAHYILNGGTLLGLKKLSFYYLIMAKGGIVRTGTHGLLVKQEDMKGHFSISIPVKSDIAPVARLLIYAVLPTGDVIGDSAKYDVENCLANKVDLSFSPSQSLPASHAHLRVTAAPQSVCALRAVDQSVLLMKPDAELSASSVYNLLPEKDLTGFPGPLNDQDDEDCINRHNVYINGITYTPVSSTNEKDMYSFLEDMGLKAFTNSKIRKPKMCPQLEARGLEGGGGGSLLGGYPGSSRGGFKEGVEGGPAGAARGKLRKYFPETWIWDLVVVNSAGVAEVGVTVPDTITEWKAGAFCLSEDAGLGISSTASLRAFQPFFVELTMPYSVIRGEAFTLKATVLNYLPKCIRVSVQLEASPAFLAVPVEKEQAPHCICANGRQTVSWAVTPKSLGNVNFTVSAEALESQELCGTEVPSVPEHGRKDTVIKPLLVEPEGLEKETTFNSLLCPSGGEVSEELSLKLPPNVVEESARASVSVLGDILGSAMQNTQNLLQMPYGCGEQNMVLFAPNIYVLDYLNETQQLTPEIKSKAIGYLNTGYQRQLNYKHYDGSYSTFGERYGRNQGNTWLTAFVLKTFAQARAYIFIDEAHITQALIWLSQRQKDNGCFRSSGSLLNNAIKGGVEDEVTLSAYITIALLEIPLTVTHPVVRNALFCLESAWKTAQEGDHGSHVYTKALLAYAFALAGNQDKRKEVLKSLNEEAVKKDNSVHWERPQKPKAPVGHFYEPQAPSAEVEMTSYVLLAYLTAQPAPTSEDLTSATNIVKWITKQQNAQGGFSSTQDTVVALHALSKYGAATFTRTGKAAQVTIQSSGTFSSKFQVDNNNRLLLQQVSLPELPGEYSMKVTGEGCVYLQTSLKYNILPEKEEFPFALGVQTLPQTCDEPKAHTSFQISLSVSYTGSRSASNMAIVDVKMVSGFIPLKPTVKMLERSNHVSRTEVSSNHVLIYLDKVSNQTLSLFFTVLQDVPVRDLKPAIVKVYDYYETDEFAIAEYNAPCSKDLGNADYKDDDDKGASHHHHHH

- Protease Inhibition (% of WT) (ADAMTS5): 92 % of WT
- Protease Inhibition (% of WT) (ADAMTS4): 115 % of WT
- Protease Inhibition (% of WT) (MMP13): 27 % of WT
B3: Variant A2M, bait region SEQ ID NO 113 (other)
chain: SVSGKPQYMVLVPSLLHTETTEKGCVLLSYLNETVTVSASLESVRGNRSLFTDLEAENDVLHCVAFAVPKSSSNEEVMFLTVQVKGPTQEFKKRTTVMVKNEDSLVFVQTDKSIYKPGQTVKFRVVSMDENFHPLNELIPLVYIQDPKGNRIAQWQSFQLEGGLKQFSFPLSSEPFQGSYKVVVQKKSGGRTEHPFTVEEFVLPKFEVQVTVPKIITILEEEMNVSVCGLYTYGKPVPGHVTVSICRKYSDASDCHGEDSQAFCEKFSGQLNSHGCFYQQVKTKVFQLKRKEYEMKLHTEAQIQEEGTVVELTGRQSSEITRTITKLSFVKVDSHFRQGIPFFGQVRLVDGKGVPIPNKVIFIRGNEANYYSNATTDEHGLVQFSINTTNVMGTSLTVRVNYKDRSPCYGYQWVSEEHEEAHHTAYLVFSPSKSFVHLEPMSHELPCGHTQTVQAHYILNGGTLLGLKKLSFYYLIMAKGGIVRTGTHGLLVKQEDMKGHFSISIPVKSDIAPVARLLIYAVLPTGDVIGDSAKYDVENCLANKVDLSFSPSQSLPASHAHLRVTAAPQSVCALRAVDQSVLLMKPDAELSASSVYNLLPEKDLTGFPGPLNDQDDEDCINRHNVYINGITYTPVSSTNEKDMYSFLEDMGLKAFTNSKIRKPKMCPQLEEGEARGSTAQEAGEGPKEEEGLGSSELEGRGSPVSQELGQRKLRKYFPETWIWDLVVVNSAGVAEVGVTVPDTITEWKAGAFCLSEDAGLGISSTASLRAFQPFFVELTMPYSVIRGEAFTLKATVLNYLPKCIRVSVQLEASPAFLAVPVEKEQAPHCICANGRQTVSWAVTPKSLGNVNFTVSAEALESQELCGTEVPSVPEHGRKDTVIKPLLVEPEGLEKETTFNSLLCPSGGEVSEELSLKLPPNVVEESARASVSVLGDILGSAMQNTQNLLQMPYGCGEQNMVLFAPNIYVLDYLNETQQLTPEIKSKAIGYLNTGYQRQLNYKHYDGSYSTFGERYGRNQGNTWLTAFVLKTFAQARAYIFIDEAHITQALIWLSQRQKDNGCFRSSGSLLNNAIKGGVEDEVTLSAYITIALLEIPLTVTHPVVRNALFCLESAWKTAQEGDHGSHVYTKALLAYAFALAGNQDKRKEVLKSLNEEAVKKDNSVHWERPQKPKAPVGHFYEPQAPSAEVEMTSYVLLAYLTAQPAPTSEDLTSATNIVKWITKQQNAQGGFSSTQDTVVALHALSKYGAATFTRTGKAAQVTIQSSGTFSSKFQVDNNNRLLLQQVSLPELPGEYSMKVTGEGCVYLQTSLKYNILPEKEEFPFALGVQTLPQTCDEPKAHTSFQISLSVSYTGSRSASNMAIVDVKMVSGFIPLKPTVKMLERSNHVSRTEVSSNHVLIYLDKVSNQTLSLFFTVLQDVPVRDLKPAIVKVYDYYETDEFAIAEYNAPCSKDLGNADYKDDDDKGASHHHHHH

Source: patent US20230250154A1 (CYTONICS, published 2023)
